Source: patent US11452764B2, “Inhibiting FAK-AKT interaction to inhibit metastasis” (Board of Trustees of Michigan State University, priority 2017, dated 2022)
Entries after “also recorded” stand apart in the source; their conditions may differ. Where no end group is shown, it is not given here.

Legend:
FAK-Akt1 interaction = target: T1, FAK-Akt1 interaction (Homo sapiens, UniProt P31749); assay: Interference of FAK-derived peptides with GST-FAK / GST-FAK-NT1 pull-down of Akt1; type: binding; conditions: for Akt1 pulldown by full length GST-FAK in presence of interfering 7 amino acid peptide: bait human wild type GST-FAK, peptides at 160 μM, vs. vehicle, n=12-14
T1 construct: endogenous in cells; host or cells: Akt1 from Caco-2/SW620 cell lysate; GST-FAK bait expressed in E. coli BL21 (pGEX-4T1)
Method: (§1) In some cases Glutathione-Sepharose-4B beads (30 μl) (GE Healthcare Life Science, Pittsburgh, Pa.) were conjugated with GST (expressed protein from a 250 μl bacterial pellet per 30 μl of beads) or recombinant GST-tagged (expressed protein from a 3 ml bacterial pellet per 30 μl of beads) (24) and incubated with lysate from 2×10^7 Caco-2 or SW620 cells (1500 μg protein) or purified Akt1 (0.35 μg) (Origene, Rockville, Md.) overnight at 4° C. Similar incubation for two hours at 4° C. was performed with FAK-derived peptides (Peptide 2.0, Chantilly, Va.) reconstituted in sterile water and mixed with conjugated beads and cell lysate for a final concentration of […] before overnight Akt1 incubation. Bound protein was eluted for western analysis (24).
To minimize the effect of non-specific binding to GST, a larger FAK-NT1 peptide (relative to GST) was used as bait and the effects of interference by NT1-2-2 FAK truncated peptides were assessed.
A full length GST-FAK was used as bait to further validate the ability of the interfering peptides to block Akt1 interaction with the entire FAK molecule. Because the seven-amino acid sequence from the short helix (LAHPPEE, SEQ ID NO:1) seemed sufficient for Akt1 binding (e.g., as shown in FIG. 6E), the focus was placed on this seven amino acid sequence and mutants thereof. […] Neither a scrambled version of the short helix (HPELAPE, SEQ ID NO:23) nor a peptide derived from the β-strand secondary structure C-terminal adjacent to the short helix (WKYELRI) interfered with pulldown.

[1] = tested on: FAK-Tyr-397 phosphorylation; assay: FAK-Y397 western blotting in suspended SW620 cells at ambient or 15 mmHg increased pressure (ZINC compounds); type: cell-based, human; conditions: for Pressure stimulation of FAK-pTyr397 / Basal FAK-pTyr397: concentrations studied: ZINC31501681 1 pM-300 μM, ZINC58264388 1 nM-100 nM, ZINC40099027 10 pM-10 nM, ZINC25613745 1 nM
From the text: Extracellular pressure was increased by 15 mmHg over ambient pressure using a temperature and pressure-controlled box as described by Basson et al. (J Cell Biochem, 78: 47-61 (2000)).
Cells were maintained at ambient or increased pressure in bacteriologic plastic dishes pacificated with heat-inactivated bovine serum albumin to prevent adhesion and avoid adhesion-associated background FAK activation. Cells were lysed in lysis buffer, resolved by 10% SDS-PAGE, transferred to nitrocellulose and blotted with antibody to Tyr-397-phosphorylated FAK (rabbit monoclonal ab81298, Abcam, San Francisco, Calif., USA) and anti-rabbit 680 (LI-COR Inc. Lincoln, Nebr., USA), before quantitation using Kodak Scientific Imaging Systems 1D, V.3.5.4 (Zeng et al., Oncotarget, 8 98051-98067 (2017)). Total FAK (Anti-FAK, clone 4.47 Merck, Darmstadt, Germany with secondary anti-mouse 800, LI-COR Inc. Lincoln, Nebr., USA) served as a loading control. FAK and Tyr-397-phosphorylated FAK western blots yielded doublets similar to those previously observed by others (McConnell et al. Mol Cancer 10: 75 (2011); Aflaki et al. Cell Mol Life Sci, 68: 3933-3947 (2011)); Das et al. Cancer Res, 72: 6217-6226 (2012); Ammoun et al. Oncogene, 31: 1710-1722 (2012)). Both bands were quantitated together.
Four structurally similar molecules to the FAK-derived sequence LAHPP (SEQ ID NO:25) (Table 2) were evaluated for their ability to prevent FAK activation by 15 mmHg increased extracellular pressure in human SW620 colon cancer cells. […] The structures of these compounds are shown below (and in FIG. 17).

Akt1 = Akt1 (Homo sapiens, UniProt P31749); assay: GST-FAK truncation/mutant fusion protein pull-down of Akt1 (cell lysate or purified Akt1); type: binding; design: endogenous in cells; host or cells: Caco-2 or SW620 cell lysate; conditions: for Akt1 pulled down by GST-FAK truncations: GST pull-down, N=4, p<0.05; for Akt1 pull-down by mutated GST-FAK-NT1 versus wild-type NT1: SW620 lysate, densitometry normalized to wild-type NT1, n=8-19, p<0.05
Method: Glutathione-Sepharose 4B beads (15 μl) were washed twice in ice-cold PBS and resuspended in 400 μl PBS. Bacterial lysate containing GST-Akt1, GST-FAK-NT1 (truncations), or GST proteins (gift of Dr. J. Chen) were then added in excess and incubated with the beads for 1 h. Glutathione-Sepharose 4B beads coupled to GST-Akt1, GST-FAK (truncations), or GST were then washed twice with PBS by centrifuge for 5 min at 500 g and incubated with nontransfected or transfected Caco-2 cell lysates (600-800 μg protein) overnight at 4° C. Transfected Caco-2 cells received plasmids encoding HA-WT-FAK or HA-FRNK. Nontransfected and transfected Caco-2 cell lysates were prepared in cell lysis buffer lysis buffer [50 mM Tris (pH 7.4), 150 mM NaCl, 1% Triton X-100, 1% sodium deoxycholate, 0.1% SDS, 1 mM EDTA, 1 mM phenylmethylsulfonyl fluoride, 1 mM Na3VO4, 50 mM NaF, 10 mM sodium pyrophosphate, […] (pH 7.4)]. Following incubation, beads were washed twice with lysis buffer without SDS and protease inhibitors. Proteins were eluted with Laemmli SDS sample dilution buffer, separated by 10% SDS-PAGE, and immunoblotted with GST, Akt1 (Cell Signaling Technology, Danvers, Mass.), or HA monoclonal antibodies (Covance, Chantilly, Va.).
as §1
Protein concentrations were determined by bicinchoninic acid (BCA) protein assay (Pierce, Rockford, Ill.). Eluate from GST pull-downs or collected cell lysates was resolved by SDS-PAGE and transferred to Hybond P 0.45 PVDF blotting membrane (Amersham Life Science, Arlington Heights, Ill.). Membranes were blocked for 1 hour at room temperature with Odyssey TBS Blocking Buffer (Amersham Life Science, Arlington Heights, Ill.) and blotted overnight at 4° C. with antibodies against FAK (#3285), Phospho-FAK Tyr397 (#3283), Akt1 (#2967), Phospho-Akt1 Ser473 (#9271), GSK-3β (#9315), Phospho-GSK-3β Ser9 (#9315), or the GST tag (#2624) (CST, Beverly, Mass.). Membranes were visualized by the infrared fluorescent IRDye system (LI-COR Biosciences, Lincoln, Nebr.) and analyzed on an Odyssey scanner (LI-COR Biosciences, Lincoln, Nebr.) within the linear range. The doublet produced by the Akt1 antibody is consistent with results with this antibody (Ko et al., Elife: 5 (2016); Wu et al. Cell Discov 3: 16054 (2017)) and other (Datta et al. Cell 91: 231-41 (1997)) anti-Akt antibodies. Results were normalized to the appropriate GST tag, GAPDH, or total protein (for phosphorylated proteins) and relative to associated ambient controls unless stated otherwise.
Because the NT1 region of FAK is still quite large, we further truncated FAK-NT1 in an attempt to specify the region responsible for Akt1 binding. Five truncations were generated: NT1 (residues 1-126), NT1-1 (residues 1-60), NT1-2 (residues 61-126), […] (residues 61-93), and NT1-2-2 (residues 94-126) (FIG. 4A).
Tests involved use of 0.3 μg of purified Akt1 in pull-down assays to approximate the Akt1 in 1,500 μg of whole cell lysate, the lysate from 1×10^7 SW620 cells previously used in similar pull-down assays. This amount (0.3 μg of purified Akt1) was selected from Western blots comparing band intensity of 0.001-0.05 μg/lane of purified Akt1 against the band intensity of 40 or 80 μg/lane of cell lysate (not shown). […]

[2] = SW620, 15 mmHg increased pressure

Akt1, sequence (P31749 whole entry, the tested form may be a part): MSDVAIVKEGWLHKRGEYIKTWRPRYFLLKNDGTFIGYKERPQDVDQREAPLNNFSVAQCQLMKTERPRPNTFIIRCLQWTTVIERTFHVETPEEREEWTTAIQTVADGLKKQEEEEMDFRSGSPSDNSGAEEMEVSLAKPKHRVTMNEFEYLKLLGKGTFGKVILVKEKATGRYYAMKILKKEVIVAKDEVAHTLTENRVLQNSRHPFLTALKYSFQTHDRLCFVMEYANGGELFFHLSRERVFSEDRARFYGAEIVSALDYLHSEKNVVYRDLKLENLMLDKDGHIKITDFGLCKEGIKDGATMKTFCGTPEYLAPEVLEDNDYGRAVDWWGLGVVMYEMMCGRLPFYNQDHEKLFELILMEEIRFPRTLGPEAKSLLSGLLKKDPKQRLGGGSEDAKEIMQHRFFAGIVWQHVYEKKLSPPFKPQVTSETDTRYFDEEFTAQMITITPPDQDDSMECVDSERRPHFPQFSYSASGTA
T1 sequence (P31749 whole entry): as the sequence (P31749 whole entry, the tested form may be a part) above

AAHCGEE [triple mutant L113A, P116C, P117G version of the FAK peptide]
Akt1 pulldown by full length GST-FAK in presence of interfering 7 amino acid peptide (FAK-Akt1 interaction): reduced Akt1 pulldown

C=C(Cl)/C(=C\C)[C@H](CC(=O)N1CCC[C@H]1c1ccc(OC)c(OC)c1)NC(N)=O [ZINC25613745]
Pressure stimulation of FAK-pTyr397 [1, 2]: affected neither basal nor pressure-stimulated FAK-Tyr-397 phosphorylation; also recorded: Maintained | Basal FAK-pTyr397 ([1]; SW620, ambient pressure): affected neither basal nor pressure-stimulated FAK-Tyr-397 phosphorylation; also recorded: No change

LAHPPEE (listed as Homo sapiens) [wild-type seven amino acid short helix peptide, FAK residues 113-119]
Akt1 pulldown by full length GST-FAK in presence of interfering 7 amino acid peptide (FAK-Akt1 interaction): reduced Akt1 pulldown

NT1-2-2: recombinant GST-FAK truncated peptide, residues 94-126 (SEQ ID NO:2) (EVHWVHLDMGVSSVREKYELAHPPEEWKYELRI; also: GST fusion (recombinant))
Akt1 pulled down by GST-FAK truncations (Akt1): significantly more Akt1 | Akt1 pull-down by GST-NT1-2-2 and its truncations versus GST control (Akt1; n=6, p<0.05 vs. GST): pulled down much more

FAK(P117S): GST-FAK-NT1 with P117S mutation (LAHPSEE)
Akt1 pull-down by mutated GST-FAK-NT1 versus wild-type NT1 (Akt1): lowered Akt1 pull-down

EVHWVHLDMGVSSVREKYELAHPPEEWKYELRI (listed as Homo sapiens) [Pep-FAK-NT1-2-2, wild-type 33 amino acid FAK peptide, residues 94-126]
Akt1 pulled down by GST-FAK-NT1 in presence of interfering 33 amino acid peptide (FAK-Akt1 interaction; bait GST-FAK-NT1, vs. vehicle (water), n=4): reduced binding between GST-FAK-NT1 and Akt1

WKYELRI [β-strand control peptide, C-terminal adjacent to the short helix, reference compound]
Akt1 pulldown by full length GST-FAK in presence of interfering 7 amino acid peptide (FAK-Akt1 interaction): No such effect

HPELAPE [scrambled short helix control peptide, reference compound]
Akt1 pulldown by full length GST-FAK in presence of interfering 7 amino acid peptide (FAK-Akt1 interaction): No such effect

FAK(L113A/P116C/P117G): GST-FAK-NT1 triple mutant (AAHCGEE)
Akt1 pull-down by mutated GST-FAK-NT1 versus wild-type NT1 (Akt1): increased Akt1 pull-down

O=C(N[C@@H](CC(=O)N1CCC[C@H]1c1nnc2ccccn12)c1ccccc1)c1ccccc1 [ZINC31501681]
Pressure stimulation of FAK-pTyr397 [1, 2]: prevented a further pressure-induced increase in FAK-Tyr-397 phosphorylation | Basal FAK-pTyr397 ([1]; SW620, ambient pressure): increased basal FAK-Tyr-397 phosphorylation | Phosphorylation of FAK-Tyr-397 at ambient pressure (pFAKY397/FAK) ([1]; suspended SW620, 1-100 pM, 30 minutes, vs 0.1% DMSO, five experiments, p≤0.05): enhances the phosphorylation of FAK-Tyr-397

LAHPSEE [mutant (P117S) version of the seven amino acid FAK peptide]
Akt1 pulldown by full length GST-FAK in presence of interfering 7 amino acid peptide (FAK-Akt1 interaction): reduced Akt1 pulldown

COc1ccc([C@@H]2CCCN2C(=O)Nc2cc(C(F)(F)F)ccc2N2CCOCC2)cc1 [ZINC40099027]
Pressure stimulation of FAK-pTyr397 [1, 2]: prevented a further pressure-induced increase in FAK-Tyr-397 phosphorylation | Basal FAK-pTyr397 ([1]; SW620, ambient pressure): increased basal FAK-Tyr-397 phosphorylation

NT1-2-1: recombinant GST-FAK truncated peptide, residues 61-93 (ATDVRGIIQKIVDSHKVKNVACYGFRLSHLRSE; also: recombinant GST fusion (GST tag); listed as Homo sapiens)
Akt1 pulled down by GST-FAK truncations (Akt1): significantly smaller amount of Akt1

Cc1ccccc1[C@@H]1CCCN1C(=O)C[C@H](NC(N)=O)c1cccs1 [ZINC58264388]
Concentrations at which there was no further increase of FAK-pTyr397 by pressure [1, 2]: (10-100 nM) | Pressure stimulation of FAK-pTyr397 [1, 2]: prevented a further pressure-induced increase in FAK-Tyr-397 phosphorylation | Concentrations at which basal FAK-pTyr397 was increased ([1]; SW620, ambient pressure): (10-100 nM) | Basal FAK-pTyr397 ([1]; SW620, ambient pressure): increased basal FAK-Tyr-397 phosphorylation

NT1-1: recombinant GST-FAK truncated peptide, residues 1-60 (MAAAYLDPNLNHTPNSSTKTHLGTGMERSPGAMERVLKVFHYFESNSEPTTWASIIRHGD; also: recombinant GST fusion (GST tag); listed as Homo sapiens)
Akt1 pulled down by GST-FAK truncations (Akt1): significantly smaller amount of Akt1
